According to publication PMC11157482:

Molecular target: Aβ42 wild-type (UniProt P05067)
Assay: fluorescence correlation spectroscopy (FCS); oligomers formed from S8C-Alexa488 and WT Aβ42 monomers 1:1.5 (labeled/unlabeled), about 10 μM total, 37 °C, stopped at t1/2; fibrils removed by centrifugation, oligomeric fraction isolated on Superdex 75; measured alone (three replicates) or with unlabeled WT fibrils (six replicates) 3-7 min after start, 37 °C, 20 mM sodium phosphate, 0.2 mM EDTA, pH 8.0; three-component fit (free dye, monomer, oligomer)

## Alexa-488-labeled Aβ42-S8C (peptide)
  oligomer dissociation half-life (in the presence of unlabeled WT fibrils): < 7 min
  stoichiometry N: 37 monomers
